Numbering of substitutions follows the chain as printed.
T1: soluble human CEA antigen (sCEA; Abcam, Ltd, Cambridge UK) (human, UniProt P06731 35-685, limits assumed)
T1 sequence: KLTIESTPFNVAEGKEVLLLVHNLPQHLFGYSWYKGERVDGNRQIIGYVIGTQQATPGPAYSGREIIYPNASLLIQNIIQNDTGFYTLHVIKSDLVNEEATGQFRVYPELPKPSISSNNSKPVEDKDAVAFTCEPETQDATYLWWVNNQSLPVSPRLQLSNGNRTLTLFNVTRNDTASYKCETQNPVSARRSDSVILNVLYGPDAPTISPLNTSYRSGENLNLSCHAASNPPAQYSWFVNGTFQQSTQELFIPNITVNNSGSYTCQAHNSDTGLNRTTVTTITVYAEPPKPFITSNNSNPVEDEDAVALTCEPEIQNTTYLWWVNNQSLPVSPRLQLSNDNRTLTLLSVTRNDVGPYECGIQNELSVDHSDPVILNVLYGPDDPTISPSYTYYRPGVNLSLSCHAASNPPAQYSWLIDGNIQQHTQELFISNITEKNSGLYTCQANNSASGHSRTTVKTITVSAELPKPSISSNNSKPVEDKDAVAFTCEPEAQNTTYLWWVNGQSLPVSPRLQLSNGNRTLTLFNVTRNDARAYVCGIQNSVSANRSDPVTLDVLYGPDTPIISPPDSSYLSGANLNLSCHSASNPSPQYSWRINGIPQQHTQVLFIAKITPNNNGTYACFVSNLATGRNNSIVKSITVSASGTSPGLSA

T2: human CEA (carcinoembryonic antigen-related cell adhesion molecule 5; CEACAM5), membrane-bound on cells (human, UniProt P06731 35-685)
T2 sequence: T1 sequence

B1: IgG1 A5, derived from scFv A5 (antibody, V domains shown)
VH: EVQLVESGGGVVQPGRSLRLSCAASGFTLSTYAMHWVRQAPGKGLEWVALISNDGSNKYYADSVKGRFTISRDNSKNTLYLQMNSLRAEDTAVYYCARDRGLRFYFDYWGQGTTVTVSS
VL: QAVLTQPASLSASPGASASLTCTLRRGINVGAYSIYWYQQKPGSPPQYLLRYKSDSDKQQGSGVSSRFSASKDASANAGILLISGLQSEDEADYYCMIWHSGASAVFGGGTKLTVLG
B2: IgG1 D8, derived from scFv D8 (antibody, V domains shown)
VH: B1 VH with A97T
VL: B1 VL
B3: IgG1 B9, derived from scFv B9 (antibody, V domains shown)
VH: EVQLVESGGGLVQPGRSLRLSCAASGFTVSSYWMHWVRQAPGKGLEWVGFIRNKANGGTTEYAASVKGRFTISRDDSKNTLYLQMNSLRAEDTAVYYCARDRGLRFYFDYWGQGTTVTVSS
VL: B1 VL
B4: murine monoclonal antibody A5B7 (antibody, V domains shown)
VH: EVQLVESGGGLVQPGGSLRLSCATSGFTFTDYYMNWVRQPPGKALEWLGFIGNKANGYTTEYSASVKGRFTISRDKSQSILYLQMNTLRAEDSATYYCTRDRGLRFYFDYWGQGTTVTVSS
VL: DIELTQSPAILSASPGEKVTMTCRASSSVTYIHWYQQKPGSSPKSWIYATSNLASGVPARFSGSGSGTSYSLTISRVEAEDAATYYCQHWSSKPPTFGGGTKLEIK
notes: The parental murine monoclonal; also called mAb A5B7

What was measured:
[1] = target: T1, soluble human CEA antigen (sCEA; Abcam, …); assay: cell-based or functional assay
[2] = target: T2, human CEA (carcinoembryonic …); assay: cell-based or functional assay
[3] = target: T1, soluble human CEA antigen (sCEA; Abcam, …); assay: not described (own data)

Binder | Inhibitory factor (ADCC EC50 with 1 ug/ml sCEA divided by EC50 without sCEA) [1] | Inhibitory factor (ADCC EC50 with 10 ug/ml sCEA divided by EC50 without sCEA) [1] | ADCC EC50, sCEA 0 ug/ml [2] | ADCC EC50 in the presence of sCEA 1 ug/ml [2] | ADCC EC50 in the presence of sCEA 10 ug/ml [2] | binding result [3]
B1 | 1.5 fold | 1 fold | 2.7 ng/mL | 4 ng/mL | 2.8 ng/mL | 
B2 | 3.3 fold | 1.4 fold | 4.4 ng/mL | 14.7 ng/mL | 6.3 ng/mL | 
B3 | 9.4 fold | 11.1 fold | 4.8 ng/mL | 45.3 ng/mL | 53.4 ng/mL | 
B4 |  |  |  |  |  | binds

Source: patent publication US20090226444A1 (MICROMET, published 2009)
